One assay concerns the target FLAG-AKT^T308D (UniProt P31749). Briefly: co-IP; SK-Br3 cells transfected with FLAG-tagged AKT constructs, starved with U0126, treated with TZ 20 min, cross-linked with DSP; anti-FLAG magnetic beads, 3 h at 4 °C; Western blot, amounts normalised on precipitated protein and input.
In a further assay the target is FLAG-AKT^T308A (UniProt P31749). The description is as above.

Take “Ser/Thr-protein phosphatase 2A (PP2A)-catalytic subunit beta isoform (from UniProt P62714 1-309) (enzyme)”: the percent co-precipitated against wt AKT in the assay with FLAG-AKT^T308D and in the assay with FLAG-AKT^T308A was 60% in each case.

These data come from publication PMC7547737.
